The target of assay [1] is T1, 人PD-L1-His重组蛋白 (human, UniProt Q9NZQ7 19-238).
T1 construct: range 19-238; also called 人PD-L1胞外区结构域重组蛋白; 重组人PD-L1; not shown: His tag
Nature of the assay: BLI (Fortebio Octet QKe), antibody captured on AHC probe, human PD-L1-His 100 nM, 1:1 Langmuir fit. (In BLI a coated tip is dipped into the sample, and binding shifts an interference pattern.)

Assay [2] deals with T1, 人PD-L1-His重组蛋白. Nature of the assay: BLI (Fortebio Octet QKe), antibody captured on AHC probe, human PD-L1-His 50 nM and 20 nM, 1:1 Langmuir fit.
Another assay addresses T2, PD-L2-hFc (human, UniProt Q9BQ51 20-220).
T2 construct: range 20-220; not shown: human Fc (hFc)
T2 sequence (looked up): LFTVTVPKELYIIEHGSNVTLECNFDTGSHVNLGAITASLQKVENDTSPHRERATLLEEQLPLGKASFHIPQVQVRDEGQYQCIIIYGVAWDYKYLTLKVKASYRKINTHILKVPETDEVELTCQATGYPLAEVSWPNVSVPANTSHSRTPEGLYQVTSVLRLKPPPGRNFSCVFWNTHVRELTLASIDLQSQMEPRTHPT
The assay can be described thus: ELISA; protein coated at 2 ug/mL. A general note: ELISA stands for enzyme-linked immunosorbent assay.

For the next assay, the target named is T3, B7H3-His (human, UniProt Q5ZPR3 29-239).
T3 construct: range 29-239; not shown: His tag
T3 sequence (looked up): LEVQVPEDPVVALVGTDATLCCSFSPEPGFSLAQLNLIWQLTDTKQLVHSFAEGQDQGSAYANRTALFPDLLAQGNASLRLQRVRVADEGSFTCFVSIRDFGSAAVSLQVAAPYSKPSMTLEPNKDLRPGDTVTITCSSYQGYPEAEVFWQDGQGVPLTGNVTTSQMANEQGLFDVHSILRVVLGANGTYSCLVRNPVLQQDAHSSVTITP
Nature of the assay: ELISA; protein coated at 2 ug/mL.

The target of another assay is T4, CTLA4-His (human, UniProt P16410 36-162).
T4 construct: Bought protein; also called Cat:11159-H08H; not shown: His tag
T4 sequence (looked up): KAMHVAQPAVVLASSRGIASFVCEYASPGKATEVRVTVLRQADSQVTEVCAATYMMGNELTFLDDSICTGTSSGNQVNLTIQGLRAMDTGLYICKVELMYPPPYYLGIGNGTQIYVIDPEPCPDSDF
The assay can be described thus: ELISA; protein coated at 2 ug/mL.

Another assay has as its target T5, 重组人CD28 (human, UniProt P10747 19-152).
T5 construct: Bought protein; also called Cat:11524-HCCH
Nature of the assay: ELISA; protein coated at 2 ug/mL.

The target in a further assay is T6, 人PD-L1/mFc重组蛋白 (human, UniProt Q9NZQ7 19-238).
T6 construct: range 19-238; not shown: mouse Fc (mFc)
The assay can be described thus: competition ELISA; PD-1-hFc coated, PD-L1-mFc 1 ug/mL, antibody titrated from 4.5 ug/mL.

Assay [3] addresses T1, 人PD-L1-His重组蛋白. Nature of the assay: BLI (Fortebio Octet QKe), antibody captured on AHC probe, human PD-L1-His 60 nM, 1:1 Langmuir fit.
The target of assay [4] is T7, 人PD-L1全长(细胞表面表达) (human, UniProt Q9NZQ7 19-290). The assay can be described thus: cell-based or functional assay.
In assay [5] the target is T7, 人PD-L1全长(细胞表面表达). Nature of the assay: flow cytometry (MFI) on CHO-PD-L1-CD3L cells, antibody titrated from 30 ug/mL.

Usually Kd stands for the equilibrium constant for the complex coming apart. Broadly, the IC50 is the concentration needed to halve the response being measured. In general, EC50 refers to the concentration giving half of the maximal effect.

T1 sequence (Q9NZQ7 19-238 limits assumed): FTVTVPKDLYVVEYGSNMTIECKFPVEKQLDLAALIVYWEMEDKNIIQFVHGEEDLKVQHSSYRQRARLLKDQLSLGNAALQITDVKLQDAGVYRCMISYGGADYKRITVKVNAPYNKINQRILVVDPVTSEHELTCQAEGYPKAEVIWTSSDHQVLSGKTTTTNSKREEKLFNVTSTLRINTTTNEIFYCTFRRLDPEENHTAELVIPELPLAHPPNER
T6 sequence (Q9NZQ7 19-238 limits assumed): as above
T5 sequence (P10747 19-152 limits assumed): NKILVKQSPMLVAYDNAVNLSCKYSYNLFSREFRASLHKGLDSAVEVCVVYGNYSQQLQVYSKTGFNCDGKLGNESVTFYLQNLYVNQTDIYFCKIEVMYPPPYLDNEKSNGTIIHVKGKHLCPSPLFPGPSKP

B1: 嵌合抗体Ch182 (antibody, human IgG1, V domains shown)
VH: EVQLQQSGAELVKPGASVKLSCTVSGFNIKDIYMHWLKQRPEQGLEWIGRIDPANGNTKYDPKFQDKATMIADTSSNTAYLQLSSLTSEDTAVYYCASGQLGPLGFDYWGQGTTLTVSS
VL: DIQMTQTTSSLSASLGDRVTISCRASQDISNYLNWYQQKPDGTVKLLIYYTSRLHSGVPSRFSGSGSGTDYSLTISNLEQEDIATYFCQQGNTLPYTFGGGTKLEIK
For the molecule B1, the Kd was 2.14 nM with 人PD-L1-His重组蛋白 [1] and about 2.02 nM with 人PD-L1-His重组蛋白 [2].

B2: 182鼠抗体 (antibody, V domains shown)
VH: EVQLQQSGAELVKPGASVKLSCTVSGFNIKDIYMHWLKQRPEQGLEWIGRIDPANGNTKYDPKFQDKATMIADTSSNTAYLQLSSLTSEDTAVYYCASGQLGPLGFDYWGQGTTLTVSS
VL: DIQMTQTTSSLSASLGDRVTISCRASQDISNYLNWYQQKPDGTVKLLIYYTSRLHSGVPSRFSGSGSGTDYSLTISNLEQEDIATYFCQQGNTLPYTFGGGTKLEIK
notes: Tested as hybridoma supernatant or as purified mouse antibody; also called m182
For B2, the binding result in the assay with PD-L2-hFc, with B7H3-His, with CTLA4-His and with 重组人CD28 was “no binding (tested: 1ug/ml)” each time.

B3: H182-MUT4 (antibody, human IgG1, kappa, V domains shown)
VH: EVQLVQSGAEVKKPGATVKISCKVSGFNIKDIYMHWVQQAPGKGLEWMGRIDPANANTKYDPKFQDRVTITADTSTNTAYMELSSLRSEDTAVYYCASGQLGPLGFDYWGQGTTVTVSS
VL: DIQMTQSPSSLSASVGDRVTITCRASQDISNYLNWYQQKPGKAPKLLLYYTSRLHSGVPSRFSGSGSGTDYTLTISSLQPEDFATYFCQQGAGRPYTFGGGTKVEIKR
notes: also called h182-LCDR3-4+h182-HCDR2-3
In the case of B3, the IC50 with 人PD-L1/mFc重组蛋白 was found to be 6.24 nM. The same molecule gave a Kd with 人PD-L1-His重组蛋白 [3] of 0.465 nM. Besides, the “ADCC EC50 (MDA-MB-231 target cells, NK92 effector cells, calcein release)” value in the assay with 人PD-L1全长(细胞表面表达) [4] is 0.96 ng/mL. In the assay with 人PD-L1全长(细胞表面表达) [5], the EC50 was determined as 0.658 nM.

B4: 182-7 (antibody, V domains shown)
VH: EVQLVQSGAEVKKPGATVKISCKVSGFNIKDIYMHWVQQAPGKGLEWMGRIDPANGNTKYDPKFQDRVTITADTSTDTAYMELSSLRSEDTAVYYCATGQLGPLGFDYWGQGTTVTVSS
VL: DIQMTQSPSSLSASVGDRVTITCRASQDISNYLNWYQQKPGKAPKLLLYYTSRLHSGVPSRFSGSGSGTDYTLTISSLQPEDFATYFCQQGNTLPYTFGGGTKVEIKR
As for B4, the Kd in the assay with 人PD-L1-His重组蛋白 [1] was 5.68 nM.

B5: 182-2 (antibody, V domains shown)
VH: EVQLVQSGAEVKKPGATVKISCKVSGFNIKDIYMHWVQQAPGKGLEWMGRIDPANGNTKYDPKFQDRVTITADTSTNTAYMELSSLRSEDTAVYYCASGQLGPLGFDYWGQGTTVTVSS
VL: DIQMTQTTSSLSASLGDRVTISCRASQDISNYLNWYQQKPDGTVKLLIYYTSRLHSGVPSRFSGSGSGTDYSLTISNLEQEDIATYFCQQGNTLPYTFGGGTKLEIKR
Consider B5, for which the affinity with 人PD-L1-His重组蛋白 [1], expressed as Kd, was 1.93 nM. This Kd lies about 2.9-fold lower than the previous one.

B6: 182-4 (antibody, V domains shown)
VH: EVQLVQSGAEVKKPGATVKISCKVSGFNIKDIYMHWVQQAPGKGLEWMGRIDPANGNTKYDPKFQDRVTITADTSTDTAYMELSSLRSEDTAVYYCATGQLGPLGFDYWGQGTTVTVSS
VL: DIQMTQSPSSLSASVGDRVTITCRASQDISNYLNWYQQKPGKAPKLLLYYTSRLHSGVPSRFSGSGSGTDYTLTISSLQPEDFATYYCQQGNTLPYTFGGGTKVEIKR
B6: in the assay with 人PD-L1-His重组蛋白 [1], the Kd came out at 8.19 nM.

B7: 182-3 (antibody, human IgG1, V domains shown)
VH: EVQLQQSGAELVKPGASVKLSCTVSGFNIKDIYMHWLKQRPEQGLEWIGRIDPANGNTKYDPKFQDKATMIADTSSNTAYLQLSSLTSEDTAVYYCASGQLGPLGFDYWGQGTTLTVSS
VL: DIQMTQSPSSLSASVGDRVTITCRASQDISNYLNWYQQKPGKAPKLLLYYTSRLHSGVPSRFSGSGSGTDYTLTISSLQPEDFATYYCQQGNTLPYTFGGGTKVEIKR
notes: also called h182L1 + Ch182H
In the assay with 人PD-L1-His重组蛋白 [1], B7 came in with a Kd of 4.77 nM.

B8: 182-1 (antibody, V domains shown)
VH: EVQLVQSGAEVKKPGATVKISCKVSGFNIKDIYMHWVQQAPGKGLEWMGRIDPANGNTKYDPKFQDRVTITADTSTDTAYMELSSLRSEDTAVYYCATGQLGPLGFDYWGQGTTVTVSS
VL: DIQMTQTTSSLSASLGDRVTISCRASQDISNYLNWYQQKPDGTVKLLIYYTSRLHSGVPSRFSGSGSGTDYSLTISNLEQEDIATYFCQQGNTLPYTFGGGTKLEIKR
In the case of B8, the Kd in the assay with 人PD-L1-His重组蛋白 [1] was 5.82 nM. This Kd and that of the molecule before are within 1.5-fold of each other.

B9: 182-5 (antibody, V domains shown)
VH: EVQLVQSGAEVKKPGATVKISCKVSGFNIKDIYMHWVQQAPGKGLEWMGRIDPANGNTKYDPKFQDRVTITADTSTNTAYMELSSLRSEDTAVYYCASGQLGPLGFDYWGQGTTVTVSS
VL: DIQMTQSPSSLSASVGDRVTITCRASQDISNYLNWYQQKPGKAPKLLLYYTSRLHSGVPSRFSGSGSGTDYTLTISSLQPEDFATYYCQQGNTLPYTFGGGTKVEIKR
B9 came in with a Kd with 人PD-L1-His重组蛋白 [1] of 3.43 nM.

B10: h182 (antibody, V domains shown)
VH: EVQLVQSGAEVKKPGATVKISCKVSGFNIKDIYMHWVQQAPGKGLEWMGRIDPANGNTKYDPKFQDRVTITADTSTNTAYMELSSLRSEDTAVYYCASGQLGPLGFDYWGQGTTVTVSS
VL: DIQMTQSPSSLSASVGDRVTITCRASQDISNYLNWYQQKPGKAPKLLLYYTSRLHSGVPSRFSGSGSGTDYTLTISSLQPEDFATYFCQQGNTLPYTFGGGTKVEIKR
In the assay with 人PD-L1-His重组蛋白 [1], B10 gave a Kd of 3.64 nM.

B11: 182-6 (antibody, human IgG1, V domains shown)
VH: EVQLQQSGAELVKPGASVKLSCTVSGFNIKDIYMHWLKQRPEQGLEWIGRIDPANGNTKYDPKFQDKATMIADTSSNTAYLQLSSLTSEDTAVYYCASGQLGPLGFDYWGQGTTLTVSS
VL: DIQMTQSPSSLSASVGDRVTITCRASQDISNYLNWYQQKPGKAPKLLLYYTSRLHSGVPSRFSGSGSGTDYTLTISSLQPEDFATYFCQQGNTLPYTFGGGTKVEIKR
notes: also called h182L2 + Ch182H
With B11, the Kd with 人PD-L1-His重组蛋白 [1] worked out at 4.64 nM.

Values taken from patent publication CN113121686A (MABWELL SHANGHAI BIOTECHNOLOGY CO LTD, dated 2021).
